# Source: patent US20110117113A1, “IMMUNOGLOBULIN SINGLE VARIABLE DOMAIN DIRECTED AGAINST HUMAN CXCR4 AND OTHER CELL ASSOCIATED PROTEINS AND METHODS TO GENERATE THEM” (priority 2009, published 2011)
# Entries after “also recorded” stand apart in the source; their conditions may differ.
# B1: Nanobody 238D4 (VHH)
# VHH: EVQLMESGGGLVQAGGSLRLSCAASGRTFNNYAMGWFRRAPGKEREFVAAITRSGVRSGVSAIYGDSVKDRFTISRDNAKNTLYLQMNSLKPEDTAVYTCAASAIGSGALRRFEYDYSGQGTQVTVSS
# B2: 238D2: monovalent anti CXCR4 Nanobody, SEQ ID NO: 2 (protein)
# VHH: EVQLVESGGGLVQTGGSLRLSCAASGFTFSSYAMSWVRQAPGKGLEWVSGIKSSGDSTRYAGSVKGRFTISRDNAKNMLYLQMYSLKPEDTAVYYCAKSRVSRTGLYTYDNRGQGTQVTVSS
# modifications: Nanobody
# Key:
# [1] = target: T1, wildtype human CXCR4 (pcDNA3.1-CXCR4, expressed in HEK293T) (human, UniProt P61073 1-352); experiment: competition with [125I]-238D4, HEK293T-CXCR4 membranes
# T1 construct: whole, on cells; also called hCXCR4; HEK293T CXCR4
# [2] = target: all CXCR4 library clones containing a mutation at F189; experiment: immunofluorescence, average over all clones with a mutation at F189
# [3] = target: all CXCR4 library clones containing a mutation at D187; experiment: immunofluorescence, average over all clones with a mutation at D187
# [4] = target: all CXCR4 library clones containing a mutation at E179; experiment: immunofluorescence, average over all clones with a mutation at E179
# [5] = target: T1, wildtype human CXCR4 (pcDNA3.1-CXCR4, …); experiment: competition with [125I]-CXCL12, HEK293T-CXCR4 membranes
# CXCR4 (N119A) [6] = target: T2, CXCR4 (N119A) (Homo sapiens, UniProt P61073, N119A); experiment: Basal inositol phosphate accumulation in HEK293T cells transiently expressing CXCR4 (N119A); type: cell-based; conditions: ligand-induced alteration of basal inositol phosphate accumulation
# T2 construct: expressed in transfected cells; host or cells: HEK293T, transient; membranes in A4, whole cells in A5
# From the text: The functional profile of monovalent Nanobodies 238D2 and 238D4 as well as their bivalent fusion products L3 and L8 on CXCR4 (N119A) were investigated by measurement of the ligand-induced alteration of the basal inositol phosphate accumulation. HEK293T cells transiently expressing CXCR4 (N119A) show a 3-8 times higher basal rate of inositol phosphate accumulation compared to wild type CXCR4 or mock (which are virtually at the same level). […] The nanobody-induced reduction of basal inositol phosphate accumulation was antagonized by the selective neutral CXCR4 antagonist plerixafor confirming that the observed […] effects are mediated via CXCR4 (N119A).
# wildtype human CXCR4 = target: T3, wildtype human CXCR4 (Homo sapiens, UniProt P61073); experiment: Footprint assay, flow cytometry binding to wildtype human CXCR4 on Hek293T cells; conditions: Myc-tag detection, 10 nM and 100 nM Nanobody, average n = 3, wild type used for normalization
# T3 construct: expressed in transfected cells; host or cells: Hek293T, transient, pcDNA3.1
# From the text: (§1) Based on the data from example 1.8, we introduced 3 single point-mutations in ECL2 of CXCR4 that allowed to discriminate between 238D2 and 238D4-like epitopes: V196E (specifically disturbing D2 binding)-SEQ ID NO: 20, D187V (specifically disturbing D4 binding)-SEQ ID NO: 21, F189V (disturbing binding of both D2 and D4)-SEQ ID NO: 19. […] For the epitope mapping, transient transfections of the three CXCR4 mutants and wildtype human CXCR4 in the pcDNA3.1 vector were done in Hek293T cells, after which Nanobody binding of different families was assessed by flow cytometry using detection of the Myc-tag, followed by secondary anti-mouse PE. Two concentrations of Nanobody were tested, 10 nM and 100 nM, and experiment was repeated with essentially the same results. Binding of the Nanobodies to HEK293T hCXCR4 cells was used for normalization using the following formulas:
# (§2) Percentage of binding to the mutant receptors was calculated for each Nanobody concentration, and a position was considered as critical when less than 25% residual binding (average of n=3) was observed (Table C-5). […] Nanobodies could be grouped according to their different binding patterns, not only in “238D2-like” or “epitope A binders” and “238D4-like” or “epitope B binders” but also into other new groups.
# CXCR4 (N119A) [7] = target: T2, CXCR4 (N119A); experiment: Competition binding with [125I]-CXCL12 on constitutively active CXCR4 mutant N119A; conditions: competition with [125I]-CXCL12 (40 pM)
# Experimental: Competition binding assay—Periplasmic fractions were screened in a competition binding assay using membranes from HEK293T cells transiently expressing CXCR4. In short, periplasmic extracts (1:10) or ligands were pre-incubated with membranes in binding buffer (50 mM HEPES (pH 7.4), 1 mM CaCl2, 5 mM MgCl2, 100 mM NaCl, 0.5% bovine serum albumin) supplemented with 0.5% BSA for 1 h at 22° C. before the addition of [^125I]-CXCL12 (40 pM) or [^125I]-238D2 (3 nM) or [^125I]-238D4 (3 nM) for additional 2 h at 22° C. […] Membranes were then harvested over polyethylenimine (0.5%)-treated Whatman GF/C filter plates and washed three times with ice cold binding buffer containing 500 mM NaCl. Plates were counted by liquid scintillation.
# CXCR4—specific Nanobodies behave as neutral antagonists or inverse agonists on constitutively active mutants of CXCR4—The CXCR4—specific monovalent Nanobodies 238D2 and 238D4 as well as their bivalent fusion products L3 and L8 were investigated on the constitutively active CXCR4 mutant N119A (equivalent to N3.35A in the Ballestros-Weinstein numbering of class A GPCRs). […] Despite of the large number of CAMs for other class A GPCRs and further efforts to generate additional CAMs for CXCR4 (Berchiche et al., 2007), the N119 mutants of CXCR4 remain the only known CAMs for this receptor. […] Methods: Preparation of membranes and competition binding experiments with [125I]-CXCL12 (40 pM) were performed as described before for wild type CXCR4 (vide supra).
# CXCR4 = target: T4, CXCR4 (Homo sapiens, UniProt P61073); experiment: Competition binding, displacement of [^125I]-238D2 on membranes from HEK293T cells transiently expressing CXCR4; conditions: mean ± S.E.M.
# T4 construct: expressed in transfected cells; host or cells: HEK293T, transient; membrane fraction
# Experimental: Iodine incorporation and specific activity were controlled via precipitation of the protein with trichloroacetic acid.
# Competition binding assay—Periplasmic fractions were screened in a competition binding assay using membranes from HEK293T cells transiently expressing CXCR4. […] Membranes were then harvested over polyethylenimine (0.5%)-treated Whatman GF/C filter plates and washed three times with ice cold binding buffer containing 500 mM NaCl. Plates were counted by liquid scintillation.
# Characterization of Nanobody binding to CXCR4—Following purification, receptor binding to characteristics for 238D2 and 238D4 were investigated on cell membranes from HEK293T cells transiently expressing CXCR4.
# Data analysis and presentation—Data are presented as mean±S.E.M. from n independent experiments. Concentration response curves (E/[A] curves) were fitted to the Hill equation using an iterative, least-squares method (GraphPad Prism 4.0, GraphPad Software, San Diego, Calif.) to provide maximal inhibitory effects (Imax), half maximal effective (EC50) or inhibitory concentrations (IC50). Competition binding affinities and functional antagonist affinities (Ki) were calculated using the Cheng and Prusoff equation Ki=IC50/(1+[agonist]/EC50) (Cheng & Prusoff, 1973).
# CXCR4 mutant 1 (F189V) = target: T5, CXCR4 mutant 1 (F189V) (Homo sapiens, UniProt P61073, F189V); experiment: Footprint assay, flow cytometry binding to CXCR4 F189V on Hek293T cells; conditions: Myc-tag detection, 10 nM and 100 nM Nanobody, average n = 3, relative to hCXCR4
# T5 construct: expressed in transfected cells; host or cells: Hek293T, transient, pcDNA3.1
# From the text: as §1, §2
# T2 sequence (P61073 whole entry N119A): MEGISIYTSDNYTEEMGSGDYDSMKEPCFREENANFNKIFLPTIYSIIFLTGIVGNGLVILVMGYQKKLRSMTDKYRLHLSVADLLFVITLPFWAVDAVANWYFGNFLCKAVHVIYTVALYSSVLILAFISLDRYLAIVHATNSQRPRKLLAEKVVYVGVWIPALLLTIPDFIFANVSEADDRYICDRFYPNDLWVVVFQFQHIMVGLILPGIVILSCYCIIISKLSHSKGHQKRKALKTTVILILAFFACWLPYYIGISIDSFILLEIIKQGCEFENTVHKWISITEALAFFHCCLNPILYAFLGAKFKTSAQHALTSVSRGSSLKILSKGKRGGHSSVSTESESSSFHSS
# T1 sequence (P61073 whole entry): as the sequence (P61073 whole entry N119A) above, with A119N counted along it
# T4 sequence (P61073 whole entry): as the sequence (P61073 whole entry N119A) above, with A119N counted along it
# T3 sequence (P61073 whole entry): as the sequence (P61073 whole entry N119A) above, with A119N counted along it
# T5 sequence (P61073 whole entry F189V): as the sequence (P61073 whole entry N119A) above, with A119N, F189V counted along it
Molecule,pKi [1] [pKi],average nanobody reactivity [2] [%],average nanobody reactivity [3] [%],average nanobody reactivity [4] [%],pKi [5] [pKi],functional profile on CXCR4 (N119A) (in words) (CXCR4 (N119A) [6]),HEK293T CXCR4 binding (wildtype human CXCR4),binding affinities to CXCR4 (N119A) compared to wild type (in words) (CXCR4 (N119A) [7]),binding to CXCR4 (N119A) (in words) (CXCR4 (N119A) [7]; highest nanobody test concentration 2 μM),[^125I]-238D2 Displacem. (%) (CXCR4; maximal displacement),[^125I]-238D2 pKi (CXCR4; receptor affinity),HEK293T F189V binding (CXCR4 mutant 1 (F189V))
B1,8.55,0.2,-12.2,13.8,8.22,,,,,,,
B2,,,,,,Only antagonistic but no significant inverse agonistic activities,+ (>75% binding to mutant rel. to hCXCR4),somewhat less compared to the wild type receptor,able to bind to CXCR4 (N119A); also recorded: clearly bind to the mutant receptor,97 ± 6,8.41 ± 0.11,− (<=25% binding to mutant rel. to hCXCR4)
